A value given as a limit tells only on which side of the number the result lay.

For one assay, the system named is cynomolgus ARG2. Kind of assay: Bio-Layer Interferometry (OctetRED) binding kinetics, cynomolgus ARG2. To be noted: cyno ARG2 ligand. The text has this:
The OctetRED (Pall ForteBio) instrument was used to assess the kinetic parameters of the interactions between C0020187 and recombinantly produced human ARG2, cynomolgus ARG2 and human ARG1. The Octet biosensor uses an optical analytical technique that analyses the interference pattern of white light reflected from two surfaces: a layer of immobilised protein on the sensor tip, and an internal reference layer. Any changes in binding at the biosensor tip result in a shift in interference pattern, which can be measured in real time. Molecules associating with or dissociating from ligands at the biosensor tip shift the interference pattern and generate a response on the Octet system which is recorded by the acquisition software.
Typically, a defined concentration of the analyte species is brought into contact with the coupled ligand and any binding is detected as an increased in signal (association phase). This is followed by a period of buffer rinse, during which dissociation of the analyte species from the surface immobilised ligand can be observed as a decrease in signal (dissociation phase). Repetition of this with a range of analyte concentrations provides data for the analysis of binding kinetics.
An Octet Kinetics Buffer (PBS containing 0.01% BSA and 0.002% Tween20) is typically used as the diluent buffer for the analyte samples and as the flow buffer during the dissociation phase. The experimental data is recorded over time as shift in interference pattern (nm) over time, which is directly proportional to the optical thickness at the biosensor tip, which in turn is an approximate measure of the mass of analyte bound. The proprietary Octet Data Analysis software package can then be used to process data and fit binding models to the data sets. Returned association (ka, M^−1 s^−1) and dissociation (kd, s^−1) rate constants allow calculation of dissociation (KD, M) affinity constants.
The affinity of binding between the Fab of C0020187 and human ARG2, cynomolgus ARG2 and human ARG1 was estimated using assays in which the biotinylated ARG antigen was captured on a streptavidin sensor tip. A fresh sensor tip was used for each measurement and no regeneration was used. A series of dilutions of the C0020187 Fab (3.25-240 nM) were individually placed in contact with the ligand surface for a sufficient amount of time to observe sensorgrams that could be fitted to an appropriate binding model with confidence (typically 5 minutes), followed by an appropriate length of dissociation time (typically 10 minutes). Blank reference (0 nM Fab) data were subtracted from each dataset to reduce the impact of any buffer artefacts or non-specific binding effects. An appropriate binding model was then fitted simultaneously to the data from each analyte titration using the Octet Evaluation software.
Example results for C0020187 are shown in Table 9, showing the association rate constants (ka), dissociation rate constants (kd) and dissociation constants (KD). These parameters were derived from a 1:1 binding fit to the data.
The affinities of the affinity-matured antibodies to human ARG2 were measured on the OctetRED system as described in section 1.15 using the streptavidin capture method. Typically, an analyte titration range of 1.8 to 120 nM was used.
The affinities of some of these antibodies to cynomolgus ARG2 were determined using the same assay, and the derived kinetic parameters are shown in Table 21.
On the technique in general: BLI is a label-free optical method that tracks binding on a fibre tip over time.

In the next assay the target is T1, ARG2 (Homo sapiens, UniProt P78540).
T1 sequence (P78540 23-354): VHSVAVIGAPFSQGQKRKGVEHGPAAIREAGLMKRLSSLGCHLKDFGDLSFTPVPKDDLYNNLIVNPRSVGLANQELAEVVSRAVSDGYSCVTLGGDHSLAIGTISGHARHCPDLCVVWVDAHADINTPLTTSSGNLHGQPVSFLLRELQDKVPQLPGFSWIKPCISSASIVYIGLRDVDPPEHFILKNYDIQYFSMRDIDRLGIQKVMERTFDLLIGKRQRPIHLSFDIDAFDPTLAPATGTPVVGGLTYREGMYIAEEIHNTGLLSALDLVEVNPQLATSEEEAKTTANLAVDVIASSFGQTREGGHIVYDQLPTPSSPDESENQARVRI
Kind of assay: T cell proliferation assay (BrdU, 96 hours) with exogenous ARG2, improved variant IgGs. The assay is classed as cell-based. The settings on record: In Absence of rhARG2, hIgG1. Here is the method: This assay served to provide evidence of improved functional efficacy for each affinity-matured antibody in comparison to the parent IgG, C0020187 (FIG. 12).
Lead optimisation clones were tested to an endpoint treatment time of 96 hours and the BrdU Cell Proliferation Kit (Roche, France; Cat: 11647229001) was used according to the manufacturer's instructions. R347 was used as the irrelevant control. All clones tested n=2.
Leukocyte cones underwent Ficoll Plaque (GE, Sweden; Cat: 17-1440-02) gradient separation, PBMC's were extracted and pan T cell population isolated by negative selection using the Human T Cell Enrichment Kit (Stemcell Technologies, France; Cat: 19051) according to the manufacturer's instructions.
40000 cells/well were seeded in complete growth media (RMPI 1640, 5% Human Serum Albumin) into a 96 well clear TC treated microplate (Greiner-Bio One, Germany; Cat: 655180). T cells were activated by the addition of ImmunoCult CD3/CD28 (Stemcell Technologies, France; Cat: 10971) at a dilution of 1:40 directly into wells and the plate incubated 37° C., 5% CO2 for 45 minutes.
To determine EC50's of test antibodies, a dilution series was created in sterile TBS/NaCl Buffer at 10× the final assay concentration added to the assay plate containing cells. Plate was incubated for 30 minutes at 37° C., 5% CO2.
ARG2 was added to relevant wells of the plate at a final concentration of 15 μg/ml. The equivalent volume of ARG2 vehicle and test antibody vehicle was added to relevant control wells. The total volume in each well was 200 μl. Cells were treated with test antibodies for a total of 96 hours at 37° C., 5% CO2. Antibodies were tested alongside C0020187 (parent IgG) as a positive control and R347 (irrelevant isotype control antibody) as a negative control.
Assessment of T cell proliferation was performed using the BrdU Cell Proliferation ELISA Kit (Roche, Germany; Cat: 000000011647229001). BrdU labelling reagent was added after 78 hours of antibody treatment and the plate further incubated for 18 hours at 37° C., 5% CO2. The remainder of the assay was performed according to the manufacturer's instructions.
Calculated data was expressed as % of control (Equation 3) and graphical plots were constructed using a four parameter fit and EC50's determined using model 205 in XLFit (IDBS, UK).
All test sample data was corrected for background (mean of no cell control)
% Control=100*((Test Sample−Mean Positive Control)/(Mean Negative Control−Mean Positive Control)) Equation 3:
Mean Positive Control=T Cells in absence of ARG2
Mean Negative Control=T Cells in presence of ARG2
This assay served to provide evidence of improved functional efficacy for each affinity-matured antibody in comparison to the parent IgG, C0020187 (FIG. 14, Table 19). R347 was used as the irrelevant control. All clones tested n=2. Reference section 2.9 for methodology.

[1] abbreviates: second-generation Fab, same extended assay.
Setting [2] is: Fab as analyte, affinity-matured antibodies.

cynomolgus ARG2, sequence (as listed by the source): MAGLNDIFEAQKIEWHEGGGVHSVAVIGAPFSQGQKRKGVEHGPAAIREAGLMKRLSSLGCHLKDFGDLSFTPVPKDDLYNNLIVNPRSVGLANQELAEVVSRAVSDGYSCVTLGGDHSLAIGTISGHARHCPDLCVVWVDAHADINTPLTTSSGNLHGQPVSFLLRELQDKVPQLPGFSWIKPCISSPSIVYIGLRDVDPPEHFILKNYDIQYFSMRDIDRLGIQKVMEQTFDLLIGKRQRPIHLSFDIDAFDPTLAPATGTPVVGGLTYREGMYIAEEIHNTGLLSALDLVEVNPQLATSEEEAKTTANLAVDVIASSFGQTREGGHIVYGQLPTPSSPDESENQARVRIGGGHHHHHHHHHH

B1: C0021158 IgG: anti-ARG2 antibody, VH SEQ ID NO: 282, VL SEQ ID NO: 287; IgG and Fab versions carry these sequences (antibody, listed as Homo sapiens, V domains shown)
VH: EVQLLESGGGLVQPGGSLRLSCAASGFTFRYEVAAWVRQAPGKGLEWVSAISGPIPKGYYADSVKGRFTISRDNSKNTLYLQMNSLRAEDTAVYYCARLRADLGLYMDLWGRGTLVTVSS
VL: QSVLTQPPSVSAAPGQKVTISCSGSSSNIGNHYVSWYQQLPGTAPKLLIYDNSERTAGVPDRFSGSKSGTSATLGITGLQTGDEADYYCGTWDELTSNLVFGGGTKLTVL
modifications: C0021158 IgG
In the assay with cynomolgus ARG2 (setting [1]), B1 returned a ka of 429000 M⁻¹ s⁻¹ and a kd of 4.64e-05 s⁻¹.

B2: C0021181: anti-ARG2 antibody, VH SEQ ID NO: 342, VL SEQ ID NO: 347 (antibody, listed as Homo sapiens, V domains shown)
VH: EVQLLESGGGLVRPGGSLRLSCAASEFTFRYDYHVWVRQAPGKGLEWVSAISGSGGSTYYADSVKSRFTISRDNSKNTLYLQMNSLRAEDTAVYYCARLRADLGLYMDLWGRGTLVTVSS
VL: QSVLTQPPSVSAAPGQKVAVSCSGSSSNIGSHYVSWYQQLPGTAPKLLIYDNSERTSGIPDRFSGSKSGTSATLGITGLQTGDEADYYCGTWDELTSNLVFGGGTRLTVL
modifications: C0021181
In the assay with cynomolgus ARG2 (setting [1]), B2 had a ka of 257000 M⁻¹ s⁻¹ and a kd of 4.43e-05 s⁻¹.

B3: C0021158: anti-ARG2 antibody, second generation lead, VH SEQ ID NO: 272, VL SEQ ID NO: 277 (antibody, listed as Homo sapiens, V domains shown)
VH: EVQLLESGGGLVQPGGSLRLSCAASGFTFRYEVAAWVRQAPGKGLEWVSAISGPIPKGYYADSVKGRFTISRDNSKNTLYLQMNSLRAEDTAVYYCARLRADLGLYMDLWGRGTLVTVPS
VL: QSVLTQPPSVSAAPGQKVTISCSGSSSNIGNHYVSWYQQLPGTAPKLLIYDNSERTAGVPDRFSGSKSGTSATLGITGLQTGDEADYYCGTWDELTSNLVFGGGTKLTVL
modifications: C0021158
By EC50 is commonly meant the concentration giving half of the maximal effect. Consider B3, for which, in the assay with ARG2 (top conc 2 μM, n=2), the EC50 was under 0.9 nM and the “Maximum % Proliferation” value is 94%.

B4: C0021133: anti-ARG2 antibody, VH SEQ ID NO: 192, VL SEQ ID NO: 197 (antibody, listed as Homo sapiens, V domains shown)
VH: EVQLLESGGGLVQPGGSLRLSCAASGFTFRYDHHVWVRQAPGKGLEWVSAISGSGGSTYYADSVKGRFTISRDNSKNTLYLQMNSLRAEDTAVYYCARLRADLGLYMDLWGRGTLVTVSS
VL: QSVLTQPPSVSAAPGQKVTVSCSGSSSNIGNHYVSWYQQLPGTAPKLLIYDTTVLSSGIPDRFSGSKSGTSATLGITGLQTGDEADYYCGTWDELTSNLVFGGGTKLTVL
modifications: C0021133
In the case of B4, in the assay on cynomolgus ARG2 (setting [2]), the ka was 328000 M⁻¹ s⁻¹ and the kd turned out to be 0.000549 s⁻¹. In addition, in the assay with ARG2 (96 hours), the EC50 was under 0.7 nM and the “Maximum % Proliferation” value stood at 90%.

B5: C0021139: anti-ARG2 antibody, VH SEQ ID NO: 212, VL SEQ ID NO: 217 (antibody, listed as Homo sapiens, V domains shown)
VH: EVQLLESGGGLVQPGGSLRLSCAASGFTFQYDYQVWVRQAPGKGLEWVSAISGSGGSTYYADSVKGRFTISRDNSKNTLYLQMNSLRAEDTAVYYCARLRADLGLYMDLWGRGTLVTVSS
VL: QSVLTQPPSVSAAPGQKVTISCSGSSSNIGNHYVSWYQQLPGTAPKLLIYDNSERTSGIPDRFSGSKSGTSATLGITGLQTGDEADYYCGTWDELTSNLVFGGGTKLTVL
modifications: C0021139
Consider B5, for which, in the assay on cynomolgus ARG2 (setting [2]), the ka is 275000 M⁻¹ s⁻¹ and the kd was 0.000724 s⁻¹. For the same molecule, in the assay with ARG2 (96 hours), the EC50 is under 1 nM and the “Maximum % Proliferation” value stood at 84%.

B6: C0021061: anti-ARG2 antibody, first generation lead, VH SEQ ID NO: 62, VL SEQ ID NO: 67 (antibody, listed as Homo sapiens, V domains shown)
VH: EVQLLESGGGLVQPGGSLRLSCAASGFTFSSYAMSWVRQAPGKGLEWVSAKPTDAGSTYYADSVKGRFTISRDNSKNTLYLQMNSLRAEDTAVYYCARLRADLGLYMDLWGRGTLVTVSS
VL: QSVLTQPPSVSAAPGQKVTISCSGSSSNIGNHYVSWYQQLPGTAPKLLIYNTVYPKSGIPDRFSGSKSGTSATLGITGLQTGDEADYYCGTWDSSLSALVFGGGTKLTVL
modifications: C0021061
Regarding B6, in the assay with cynomolgus ARG2 (setting [2]), the ka turned out to be 310000 M⁻¹ s⁻¹ and the kd came out at 0.000296 s⁻¹. For the same molecule, in the assay with ARG2 (96 hours), the EC50 was under 0.9 nM and the “Maximum % Proliferation” value stood at 99%. For the same molecule, in the assay with ARG2 (top conc 2 μM, n=2), the EC50 is under 0.9 nM and the “Maximum % Proliferation” value is reported as 93%.

B7: C0021092: anti-ARG2 antibody, VH SEQ ID NO: 92, VL SEQ ID NO: 97 (antibody, listed as Homo sapiens, V domains shown)
VH: EVQLLESGGGLVQPGGSLRLSCAASGFTFSRYAMSWVRQAPGKGLEWVSAHTHSPGSTYYADSVKGRFTISRDNSKNTLYLQMNSLRAEDTAVYYCARLRADLGLYMDLWGRGTLVTVSS
VL: QSVLTQPPSVSAAPGQKVTISCSGSSSNIGNHYVSWYQQLPGTAPKLLIYNSVARPSGIPDRFSGSKSGTSATLGITGLQTGDEADYYCGTWDSSLSALVFGGGTKLTVL
modifications: C0021092
In the assay on cynomolgus ARG2 (setting [2]), B7 yielded a ka of 354000 M⁻¹ s⁻¹ and a kd of 0.000726 s⁻¹. Also, in the assay with ARG2 (96 hours), the 50% effective concentration (EC50) was under 0.9 nM and the “Maximum % Proliferation” value is recorded as 92%.
